From the Human Domainome abundance scans (Beltran et al. 2025)
± gives the uncertainty stated by the source.

B1: Tripartite motif-containing protein 44, residues 174 to 218; numbered along this chain, Q96DX7 (parent)
chain: VAKRKCPDHGLDLSTYCQEDRQLICVLCPVIGAHQGHQLSTLDEA

Variants of: B1
Assay: abundance fitness (aPCA) (normalised: wild type 0, dead -1); higher = more abundant; growth selection in yeast, the domain comes from the species named
Conditions: Homo sapiens

Variant | abundance fitness
VAKRKCPDHGLDLSTYCQEDRQLICVLCPVIGAHQGHQLSTMDEA [L42M] | -0.003 ± 0.031
VAKRKCPDHGLDLSTYCQEDRQLICVLCPVIGAHQGHQLSTNDEA [L42N] | 0.002 ± 0.047
VAKRKCPDHGLDLSTYCQEDRQLICVLCPVIGAHQGHQLSTPDEA [L42P] | 0.027 ± 0.035
VAKRKCPDHGLDLSTYCQEDRQLICVLCPVIGAHQGHQLSTQDEA [L42Q] | 0.048 ± 0.033
VAKRKCPDHGLDLSTYCQEDRQLICVLCPVIGAHQGHQLSTRDEA [L42R] | 0.024 ± 0.026
VAKRKCPDHGLDLSTYCQEDRQLICVLCPVIGAHQGHQLSTSDEA [L42S] | 0.033 ± 0.028
VAKRKCPDHGLDLSTYCQEDRQLICVLCPVIGAHQGHQLSTTDEA [L42T] | 0.068 ± 0.033
VAKRKCPDHGLDLSTYCQEDRQLICVLCPVIGAHQGHQLSTVDEA [L42V] | 0.023 ± 0.027
VAKRKCPDHGLDLSTYCQEDRQLICVLCPVIGAHQGHQLSTWDEA [L42W] | -0.034 ± 0.028
VAKRKCPDHGLDLSTYCQEDRQLICVLCPVIGAHQGHQLSTYDEA [L42Y] | 0.017 ± 0.039
VAKRKCPDHGLDLSTYCQEDRQLICVLCPVIGAHQGHQLSTLAEA [D43A] | -0.036 ± 0.027
VAKRKCPDHGLDLSTYCQEDRQLICVLCPVIGAHQGHQLSTLCEA [D43C] | -0.042 ± 0.033
VAKRKCPDHGLDLSTYCQEDRQLICVLCPVIGAHQGHQLSTLEEA [D43E] | 0.023 ± 0.028
VAKRKCPDHGLDLSTYCQEDRQLICVLCPVIGAHQGHQLSTLFEA [D43F] | -0.157 ± 0.034
VAKRKCPDHGLDLSTYCQEDRQLICVLCPVIGAHQGHQLSTLGEA [D43G] | -0.013 ± 0.026
VAKRKCPDHGLDLSTYCQEDRQLICVLCPVIGAHQGHQLSTLHEA [D43H] | -0.058 ± 0.044
VAKRKCPDHGLDLSTYCQEDRQLICVLCPVIGAHQGHQLSTLIEA [D43I] | -0.132 ± 0.041
VAKRKCPDHGLDLSTYCQEDRQLICVLCPVIGAHQGHQLSTLKEA [D43K] | -0.073 ± 0.037
VAKRKCPDHGLDLSTYCQEDRQLICVLCPVIGAHQGHQLSTLLEA [D43L] | -0.107 ± 0.028

Variant | abundance fitness
VAKRKCPDHGLDLSTYCQEDRQLICVLCPVIGAHQGHQLSTLMEA [D43M] | -0.072 ± 0.035
VAKRKCPDHGLDLSTYCQEDRQLICVLCPVIGAHQGHQLSTLNEA [D43N] | -0.026 ± 0.044
VAKRKCPDHGLDLSTYCQEDRQLICVLCPVIGAHQGHQLSTLPEA [D43P] | 0 ± 0.029
VAKRKCPDHGLDLSTYCQEDRQLICVLCPVIGAHQGHQLSTLQEA [D43Q] | -0.035 ± 0.032
VAKRKCPDHGLDLSTYCQEDRQLICVLCPVIGAHQGHQLSTLREA [D43R] | -0.072 ± 0.026
VAKRKCPDHGLDLSTYCQEDRQLICVLCPVIGAHQGHQLSTLSEA [D43S] | -0.026 ± 0.029
VAKRKCPDHGLDLSTYCQEDRQLICVLCPVIGAHQGHQLSTLTEA [D43T] | -0.042 ± 0.029
VAKRKCPDHGLDLSTYCQEDRQLICVLCPVIGAHQGHQLSTLVEA [D43V] | -0.056 ± 0.027
VAKRKCPDHGLDLSTYCQEDRQLICVLCPVIGAHQGHQLSTLWEA [D43W] | -0.211 ± 0.029
VAKRKCPDHGLDLSTYCQEDRQLICVLCPVIGAHQGHQLSTLYEA [D43Y] | -0.112 ± 0.045
VAKRKCPDHGLDLSTYCQEDRQLICVLCPVIGAHQGHQLSTLDAA [E44A] | 0.009 ± 0.028
VAKRKCPDHGLDLSTYCQEDRQLICVLCPVIGAHQGHQLSTLDCA [E44C] | -0.055 ± 0.032
VAKRKCPDHGLDLSTYCQEDRQLICVLCPVIGAHQGHQLSTLDDA [E44D] | -0.053 ± 0.034
VAKRKCPDHGLDLSTYCQEDRQLICVLCPVIGAHQGHQLSTLDFA [E44F] | -0.123 ± 0.054
VAKRKCPDHGLDLSTYCQEDRQLICVLCPVIGAHQGHQLSTLDGA [E44G] | -0.002 ± 0.027
VAKRKCPDHGLDLSTYCQEDRQLICVLCPVIGAHQGHQLSTLDHA [E44H] | 0.102 ± 0.068
VAKRKCPDHGLDLSTYCQEDRQLICVLCPVIGAHQGHQLSTLDIA [E44I] | -0.132 ± 0.054
VAKRKCPDHGLDLSTYCQEDRQLICVLCPVIGAHQGHQLSTLDKA [E44K] | -0.056 ± 0.037
VAKRKCPDHGLDLSTYCQEDRQLICVLCPVIGAHQGHQLSTLDLA [E44L] | -0.082 ± 0.031

Variant | abundance fitness
VAKRKCPDHGLDLSTYCQEDRQLICVLCPVIGAHQGHQLSTLDMA [E44M] | -0.058 ± 0.039
VAKRKCPDHGLDLSTYCQEDRQLICVLCPVIGAHQGHQLSTLDNA [E44N] | -0.014 ± 0.052
VAKRKCPDHGLDLSTYCQEDRQLICVLCPVIGAHQGHQLSTLDQA [E44Q] | -0.031 ± 0.038
VAKRKCPDHGLDLSTYCQEDRQLICVLCPVIGAHQGHQLSTLDRA [E44R] | -0.032 ± 0.027
VAKRKCPDHGLDLSTYCQEDRQLICVLCPVIGAHQGHQLSTLDSA [E44S] | -0.01 ± 0.031
VAKRKCPDHGLDLSTYCQEDRQLICVLCPVIGAHQGHQLSTLDTA [E44T] | 0.014 ± 0.03
VAKRKCPDHGLDLSTYCQEDRQLICVLCPVIGAHQGHQLSTLDVA [E44V] | -0.065 ± 0.029
VAKRKCPDHGLDLSTYCQEDRQLICVLCPVIGAHQGHQLSTLDWA [E44W] | -0.14 ± 0.028
VAKRKCPDHGLDLSTYCQEDRQLICVLCPVIGAHQGHQLSTLDYA [E44Y] | -0.232 ± 0.046
VAKRKCPDHGLDLSTYCQEDRQLICVLCPVIGAHQGHQLSTLDEC [A45C] | -0.058 ± 0.078
VAKRKCPDHGLDLSTYCQEDRQLICVLCPVIGAHQGHQLSTLDED [A45D] | 0.002 ± 0.05
VAKRKCPDHGLDLSTYCQEDRQLICVLCPVIGAHQGHQLSTLDEE [A45E] | -0.096 ± 0.092
VAKRKCPDHGLDLSTYCQEDRQLICVLCPVIGAHQGHQLSTLDEI [A45I] | 0.168 ± 0.087
VAKRKCPDHGLDLSTYCQEDRQLICVLCPVIGAHQGHQLSTLDEK [A45K] | -0.046 ± 0.14
VAKRKCPDHGLDLSTYCQEDRQLICVLCPVIGAHQGHQLSTLDEL [A45L] | -0.093 ± 0.045
VAKRKCPDHGLDLSTYCQEDRQLICVLCPVIGAHQGHQLSTLDEM [A45M] | -0.029 ± 0.058
VAKRKCPDHGLDLSTYCQEDRQLICVLCPVIGAHQGHQLSTLDEP [A45P] | 0.004 ± 0.049
VAKRKCPDHGLDLSTYCQEDRQLICVLCPVIGAHQGHQLSTLDEQ [A45Q] | 0.044 ± 0.38
VAKRKCPDHGLDLSTYCQEDRQLICVLCPVIGAHQGHQLSTLDER [A45R] | -0.006 ± 0.033
